# Results as given in patent US6635751B1, “Isolated nucleic acids encoding activated and suppressive forms of ATF6” (HSP Research Institute, Inc., priority 1998, dated 2003).
# B1: CREB-RP(151-389): CREB-RP deletion mutant lacking transcription-activating domain (protein, UniProt Q99941 151-389, looked up, fragment)
# chain: VIPTSDDSSDVQTKIEPVSPCSSVNSEASLLSADSSSQAFIGEEVLEVKTESLSPSGCLLWDVPAPSLGAVQISMGPSLDGSSGKALPTRKPPLQPKPVVLTTVPMPSRAVPPSTTVLLQSLVQPPPVSPVVLIQGAIRVQPEGPAPSLPRPERKSIVPAPMPGNSCPPEVDAKLLKRQQRMIKNRESACQSRRKKKEYLQGLEARLQAVLADNQQLRRENAALRRRLEALLAENSELK
# B2: CREB-RP(1-389): CREB-RP amino acids 1st to 389th, corresponding to p60CREB-RP, activated form (protein)
# chain: AELMLLSEIADPTRFFTDNLLSPEDWDSTLYSGLDEVAEEQTQLFRCPEQDVPFDGSSLDVGMDVSPSEPPWELLPIFPDLQVKSEPSSPCSSSSLSSESSRLSTEPSSEALGVGEVLHVKTESLAPPLCLLGDDPTSSFETVQINVIPTSDDSSDVQTKIEPVSPCSSVNSEASLLSADSSSQAFIGEEVLEVKTESLSPSGCLLWDVPAPSLGAVQISMGPSLDGSSGKALPTRKPPLQPKPVVLTTVPMPSRAVPPSTTVLLQSLVQPPPVSPVVLIQGAIRVQPEGPAPSLPRPERKSIVPAPMPGNSCPPEVDAKLLKRQQRMIKNRESACQSRRKKKEYLQGLEARLQAVLADNQQLRRENAALRRRLEALLAENSELKLGSGNRKVVCIMVFLLFIAFNFGPVSISEPPSAPISPRMNKGEPQPRRHLLGFSEQEPVQGVEPLQGSSQGPKEPQPSPTDQPSFSNLTAFPGGAKELLLRDLDQLFLSSDCRHFNRTESLRLADELSGWVQRHQRGRRKIPQRAQERQKSQPRKKSPPVKAVPIQPPGPPERDSVGQLQLYRHPDRSQPAFLDAIDRREDTFYVVSFRRGHLLLPAISHNKTSRPKMSLVMPAMAPNETLSGRGAPGDYEEMMQIECEVMDTRVIHIKTSTVPPSLRKQPSPTPGNATGGPLPVSAASQAHQASHQPLYLNHP
# B3: CREB-RP(81-389): CREB-RP deletion mutant lacking transcription-activating domain (protein, UniProt Q99941 81-389, looked up, fragment)
# chain: IFPDLQVKSEPSSPCSSSSLSSESSRLSTEPSSEALGVGEVLHVKTESLAPPLCLLGDDPTSSFETVQINVIPTSDDSSDVQTKIEPVSPCSSVNSEASLLSADSSSQAFIGEEVLEVKTESLSPSGCLLWDVPAPSLGAVQISMGPSLDGSSGKALPTRKPPLQPKPVVLTTVPMPSRAVPPSTTVLLQSLVQPPPVSPVVLIQGAIRVQPEGPAPSLPRPERKSIVPAPMPGNSCPPEVDAKLLKRQQRMIKNRESACQSRRKKKEYLQGLEARLQAVLADNQQLRRENAALRRRLEALLAENSELK
# B4: ATF6(151-330): ATF6 amino acids 151st to 330th, transcription-activating domain deletion mutant (protein, UniProt P18850 151-330, looked up, fragment)
# chain: DKPVTGPRNKTENGLTPKKKIQVNSKPSIQPKPLLLPAAPKTQTNSSVPAKTIIIQTVPTLMPLAKQQPIISLQPAPTKGQTVLLSQPTVVQLQAPGVLPSAQPVLAVAGGVTQLPNHVVNVVPAPSANSPVNGKLSVTKPVLQSTMRNVGSDIAVLRRQQRMIKNRESACQSRKKKKEY
# Key:
# HeLa cells = assay: Immunoblotting time course of p50ATF6 and GRP78 in treated HeLa cells; format: cell-based, human; settings: 7 μM A23187 or 300 μM thapsigargin
# Method: HeLa cells were treated with 2 μg/ml TM, 7 μM A23187 or 300 μM thapsigargin (in the figure, simply referred to as “Tg”) for the indicated period. Alternatively, HeLa cells which were treated separately from the above treated cells were heat-shocked at 43° C. for 1 hour and then recovered at 37° C. for the indicated period. Whole cell extracts were prepared and analyzed by immunoblotting using an anti-B03N antiserum or an antiserum specific to either GRP78 or HSP70.
# HeLa cells cultured in a 60-mm dish so as to have 60% confluency were incubated in the presence of 2 μg/ml tunicamycin (TM) for the indicated period. Cells were washed with PBS, scraped with a rubber policeman, and suspended in 100 μl Laemmli's SDS sample buffer. After boiling the suspension for 5 minutes, aliquots corresponding to 1×10^5 cells were subjected to SDS-PAGE (10% gel) and analyzed by immunoblotting using an anti-ATF6 antibody, or an anti-KDEL antibody recognizing GRP78. The positions of p90ATF6 and p50ATF6 are indicated by open and closed arrows, respectively. The asterisks denote non-specific bands in which a sugar chain is not added to p90ATF6. The positions of molecular weight markers (manufactured by Bio-Rad, prestained SDS-PAGE preparations) are also shown.
# By lysing 1×10^6 HeLa cells in 60 μl of 1×sample buffer (62.5 mM Tris-HCl (pH 6.8), 2% SDS, 350 mM dithiothreitol and 0.01% bromophenol blue), a whole cell extract was prepared. […] Using an ECL Western blotting detection kit (manufactured by Amersham Pharmacia Biotech), each antigen was detected.
# In order to determine whether or not the appearance of p50ATF6 is associated with the intracellular UPR activity, stress-induced p50ATF6 appearance and GRP78 expression were monitored with the passage of time by immunoblotting.
# In order to determine whether or not p90ATF6 is directly converted to p50ATF6 by endoplasmic reticulum stress, quantitative changes in p90ATF6, p50ATF6 and the target protein GRP78 in TM-treated HeLa cells were evaluated with the passage of time by immunoblotting using the purified ATF6 antibody.
# human GRP78 promoter [1] = assay: Overexpression of CREB-RP mutants with GRP78 promoter luciferase reporter in HeLa cells, ERSE-mediated transcription; format: cell-based; settings: for ERSE-dependent transcriptional induction by the TM treatment: 2 μg/ml tunicamycin for 16 hours
# Text: In a 96-well plate, the HeLa cells were transiently transformed with a reporter plasmid pGL-G78(−132) for expressing firefly luciferase gene under the control of a human GRP78 promoter together with pcDNA3.1 vector which has no inserts or with ATF6(1-373) expression plasmid or with CREB-RP(1-389) expression plasmid. Relative activity is indicated by the mean±standard deviation (bars), based on four independent experiments (each triplicate determinations).
# In a 96-well plate, the HeLa cells were transiently transformed using a reporter plasmid pGL-G78(−132) for expressing firefly luciferase gene under the control of a human GRP78 promoter together with pcDNA3.1 vector which has no inserts or with CREB-RP(308-386) expression plasmid. Transfected cells were treated with (closed bars) or without 2 μg/ml tunicamycin (open bars) for 16 hours before luciferase activities were determined. Relative activity is indicated by the mean±standard deviation (bars), based on four independent experiments (each triplicate determinations).
# In the figure, closed bars and open bars indicate the same as those in FIG. 31.
# The CREB-RP(1-389) expression plasmid and a reporter plasmid resulting from ligation of the luciferase gene to downstream of the GRP78 promoter or mutant GRP78 promoter were introduced into the HeLa cells to evaluate the effect of CREB-RP(1-389) overexpression on ERSE-mediated transcriptional activation.
# In the same manner as in Example 16, the effect of CREB-RP(308-386) overexpression on ERSE-mediated transcriptional activation was evaluated.
# In addition, in the same manner as in Example 16, the effect of overexpression of CREB-RP(81-389) or CREB-RP(151-389) on ERSE-mediated transcriptional activation was evaluated. Here, each of CREB-RP(81-389) and CREB-RP(151-389) lacks transcription-activating domain.
# human GRP78 promoter [2] = assay: Overexpression of pCGN-ATF6 deletion mutants with reporter pGL3-G78(-132) in HeLa cells, ERSE-mediated transcription; format: cell-based
# Method: HeLa cells in a 24-well plate were transiently transfected with a reporter plasmid pGL-G78(−132) capable of expressing firefly luciferase gene under the control of human GRP78 promoter, together with pCGN vector alone (Vec) or each of ATF6 expression plasmids. Transfected cells were treated with (closed bars) or without (open bars) 2 μg/ml tunicamycin (TM) for 16 hours prior to measuring luciferase activity. The relative activities are indicated as the mean±standard deviations (bars) from four independent experiments (triplicate determinations).
# Using HeLa cells co-transfected with the reporter plasmid pGL3-G78(−132) [see Example 1 (FIG. 6, line 2)] resulting from ligation of the firefly luciferase gene to downstream of the human GRP78 promoter ([−132 to +7], numbered on the basis of the translation initiation point taken as +1) and the expression plasmid for the ATF6 C-terminal deletion mutant of Example 10, the effects of each of the overexpressed C-terminal deletion mutants of ATF6 on ERSE-mediated transcriptional activation were evaluated.
# Next, in the same manner as in Example 13, the effect of the overexpression of each ATF6 transcription-activating domain deletion mutant on ERSE-mediated transcriptional activation was evaluated by co-transfection with the reporter plasmid pGL3-G78(−132).
molecule,measurement,setting,value
C/C=C(/C)C(=O)O[C@H]1C(C)=C2[C@H]([C@@H]1OC(=O)CCCCCCC)[C@@](C)(OC(C)=O)C[C@H](OC(=O)CCC)[C@@]1(O)[C@H]2OC(=O)[C@@]1(C)O [thapsigargin],appearance of p50ATF6 relative to GRP78 induction,HeLa cells,p50ATF6 appeared in advance of GRP78 induction
CNc1ccc2oc(C[C@H]3O[C@@]4(CC[C@H]3C)O[C@H]([C@H](C)C(=O)c3ccc[nH]3)[C@H](C)C[C@H]4C)nc2c1C(=O)O [A23187],appearance of p50ATF6 relative to GRP78 induction,HeLa cells,p50ATF6 appeared in advance of GRP78 induction
CREB-RP(308-386): CREB-RP amino acids 308th to 386th with N-terminal Met; only basic region and leucine zipper,ERSE-dependent transcriptional induction by the TM treatment,human GRP78 promoter [1],strongly suppressed
B1,ERSE-dependent transcriptional induction by the TM treatment,human GRP78 promoter [1],strongly suppressed
B2,ERSE-mediated transcription from GRP78 promoter on overexpression,"human GRP78 promoter [1]; without ER stress, not observed with mutant ERSE",constitutively activated the transcription
B3,ERSE-dependent transcriptional induction by the TM treatment,human GRP78 promoter [1],strongly suppressed
B4,action on endogenous p50ATF6 in the nucleus,human GRP78 promoter [2],act dominant-negatively
